Patent US20040053822A1

Experiments:
HLA-A*0301 (human) [1] = test: competition vs 125I standard peptide, purified HLA-A*0301
HLA-A*2401 (human) = test: inhibition of 125I-labelled standard peptide binding to purified HLA
HLA-A*0203 (human) = test: competition with 125I probe peptide, purified HLA
HLA-A*6802 (human) [2] = test: competition with 125I probe peptide, purified HLA
HLA-A2401 (human) = test: inhibition of 125I probe peptide binding to purified HLA
HLA-A*0301 (human) [3] = test: competition with 125I probe peptide, purified HLA
HLA-A*6802 (human) [4] = test: competition with 125I probe peptide, purified HLA, gel filtration; conditions: scale: ratio
HLA-A*0301 (human) [5] = test: 125I-probe competition, purified HLA

MAGE3 peptide, position 118, 10 amino acids
relative binding ratio (ratio to standard peptide) (HLA-A*0301 (human) [1]): 0.0014

MAGE3 150-160 (position 150, 11 amino acids) (peptide)
relative binding ratio (IC50 standard peptide / IC50 test peptide) (HLA-A*2401 (human)): 0.091

MAGE3.174 11-mer … (peptide)
IC50 (HLA-A*0203 (human)): 0.769 µM
IC50 (HLA-A*6802 (human) [2]): 4.49 µM

MAGE3 195-204 (position 195, 10 amino acids) (peptide)
relative binding ratio (IC50 standard peptide / IC50 test peptide) (HLA-A*2401 (human)): 0.05

MAGE3 peptide, position 150, 11 amino acids
relative binding ratio (IC50 standard/IC50 peptide) (HLA-A2401 (human)): 0.091

MAGE3 peptide, position 300, 10 amino acids
relative binding ratio (IC50 standard/IC50 peptide) (HLA-A2401 (human)): 0.59

MAGE3 142-150 (position 142, 9 amino acids) (peptide)
relative binding ratio (IC50 standard peptide / IC50 test peptide) (HLA-A*2401 (human)): 0.53

MAGE3 peptide, position 267, 10 amino acids
relative binding ratio (ratio to standard peptide) (HLA-A*0301 (human) [1]): 0.0032

MAGE3 97-105 (position 97, 9 amino acids) (peptide)
relative binding ratio (IC50 standard peptide / IC50 test peptide) (HLA-A*2401 (human)): 0.0049

MAGE3 peptide, position 268, 11 amino acids
relative binding ratio (IC50 standard/IC50 peptide) (HLA-A2401 (human)): 0.0004

MAGE2.112 11-mer … (peptide)
IC50 (HLA-A*6802 (human) [2]): 7.69 µM

MAGE3 peptide, position 118, 9 amino acids
relative binding ratio (ratio to standard peptide) (HLA-A*0301 (human) [1]): 0.0016

MAGE2.71 11-mer … (peptide)
IC50 (HLA-A*0301 (human) [3]): 1 µM

MAGE3 peptide, position 97, 9 amino acids
relative binding ratio (IC50 standard/IC50 peptide) (HLA-A2401 (human)): 0.0049

MAGE3 peptide, position 221, 11 amino acids
relative binding ratio (IC50 standard/IC50 peptide) (HLA-A2401 (human)): 0.026

MAGE3 peptide, position 220, 9 amino acids
relative binding ratio (HLA-A*6802 (human) [4]): 0.0012

MAGE3 peptide, position 115, 10 amino acids
relative binding ratio (ratio to standard peptide) (HLA-A*0301 (human) [1]): 0.0066

MAGE2 and MAGE3 peptide, position 115, 9 amino acids
relative binding ratio (HLA-A*0301 (human) [5]): 0.0045

MAGE3 peptide, position 300, 8 amino acids
relative binding ratio (IC50 standard/IC50 peptide) (HLA-A2401 (human)): 0.042

MAGE3 peptide, position 270, 9 amino acids
relative binding ratio (IC50 standard/IC50 peptide) (HLA-A2401 (human)): 0.0006

MAGE3 peptide, position 142, 9 amino acids
relative binding ratio (IC50 standard/IC50 peptide) (HLA-A2401 (human)): 0.53

MAGE3 peptide, position 115, 9 amino acids
relative binding ratio (ratio to standard peptide) (HLA-A*0301 (human) [1]): 0.0045

MAGE3 300-307 (position 300, 8 amino acids) (peptide)
relative binding ratio (IC50 standard peptide / IC50 test peptide) (HLA-A*2401 (human)): 0.042

MAGE3 peptide, position 195, 9 amino acids
relative binding ratio (IC50 standard/IC50 peptide) (HLA-A2401 (human)): 0.42

MAGE3 195-203 (position 195, 9 amino acids) (peptide)
relative binding ratio (IC50 standard peptide / IC50 test peptide) (HLA-A*2401 (human)): 0.42

MAGE3 300-309 (position 300, 10 amino acids) (peptide)
relative binding ratio (IC50 standard peptide / IC50 test peptide) (HLA-A*2401 (human)): 0.59

MAGE3 peptide, position 195, 10 amino acids
relative binding ratio (IC50 standard/IC50 peptide) (HLA-A2401 (human)): 0.05

MAGE3 221-231 (position 221, 11 amino acids) (peptide)
relative binding ratio (IC50 standard peptide / IC50 test peptide) (HLA-A*2401 (human)): 0.026
